This is an account of results in US10738094B2, “Peptides and combination of peptides for use in immunotherapy against ovarian cancer and other cancers” (immatics biotechnologies GmbH, priority 2015, dated 2020).

In the experiment the target is HLA-A*02:01 (Homo sapiens, UniProt P04439, D140Y/D185E/D98H/E176V/E277Q/G131W/G231S/I119V/I121R/I166T/I218V/L300P/L318F/N151K/N90K/P208A/P217A/Q86G/Q94H/R138H/R169H/T345S). Description: MHC binding assay (UV-ligand exchange, beta2m ELISA). Particulars: binding to HLA-A*02:01 ranged by peptide exchange yield (UV-ligand exchange, β2m ELISA). A digest of the protocol:
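UV-cleavable ligand in peptide-MHC complexes was exchanged for test peptide. Exchange yield came from an ELISA on streptavidin-captured complexes diluted 100 fold, detecting β2m with HRP anti-β2m (2 ug/ml, 1 h, 37° C.), TMB, A450.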
On to “612 (YLYNEGLSV; listed as Homo sapiens) [compound 612]”, for which the Peptide exchange entry is recorded as ““+++” (≥50 = +++)”.
The entry for “385 (SLLEQGLVEA; listed as Homo sapiens) [compound 385]” is ““++” (≥20% = ++)”.
Take “265 (LLFGGTKTV; listed as Homo sapiens) [compound 265]”: the Peptide exchange result was ““++” (≥20% = ++)”.
As for “548 (ALWENPESGEL; listed as Homo sapiens) [compound 548]”, the Peptide exchange result is ““++” (≥20% = ++)”.
The same measure for “303 (AILPQLFMV; listed as Homo sapiens) [compound 303]”: ““++++” (≥75% = ++++)”.
The same measure for “194 (ALPLFVITV; listed as Homo sapiens) [compound 194]”: ““+++” (≥50 = +++)”; for “192 (KMLDGASFTL; listed as Homo sapiens) [compound 192]”: ““+++” (≥50 = +++)”.
The entry for “407 (YLMDLINFL; listed as Homo sapiens) [compound 407]” is ““+++” (≥50 = +++)”; for “197 (ALGPEGGRV; listed as Homo sapiens) [compound 197]” it is ““++” (≥20% = ++)”; for “18 (YLVAKLVEV; listed as Homo sapiens) [compound 18]” it is ““++” (≥20% = ++)”.
As for “6 (VLVSDGVHSV; listed as Homo sapiens) [compound 6]”, the Peptide exchange entry is reported as ““+++” (≥50 = +++)”.
The same measure for “458 (SLIDKLYNI; listed as Homo sapiens) [compound 458]”: ““++” (≥20% = ++)”.
Consider “345 (VIWKALIHL; listed as Homo sapiens) [compound 345]”, for which the Peptide exchange entry is listed as ““+++” (≥50 = +++)”.
Consider “494 (ALQPEPIKV; listed as Homo sapiens) [compound 494]”, for which the Peptide exchange entry was ““++” (≥20% = ++)”.
For the substance “251 (ALYTGFSILV; listed as Homo sapiens) [compound 251]”, the Peptide exchange result is ““++” (≥20% = ++)”.
For “220 (LLQKFVPEI; listed as Homo sapiens) [compound 220]”, the Peptide exchange result was ““++” (≥20% = ++)”.
Consider “509 (FLFDTKPLIV; listed as Homo sapiens) [compound 509]”, for which the Peptide exchange entry is listed as ““+++” (≥50 = +++)”.
The entry for “566 (VIADGGIQNV; listed as Homo sapiens) [compound 566]” is ““++” (≥20% = ++)”; for “155 (RVANLHFPSV; listed as Homo sapiens) [compound 155]” it is ““+++” (≥50 = +++)”; for “515 (LLQELVLFL; listed as Homo sapiens) [compound 515]” it is ““+++” (≥50 = +++)”.
Regarding “235 (YLNDLHEVLL; listed as Homo sapiens) [compound 235]”, the Peptide exchange entry is listed as ““++++” (≥75% = ++++)”.
The entry for “606 (ALWETEVYI; listed as Homo sapiens) [compound 606]” is ““+++” (≥50 = +++)”; for “363 (KVLDVSDLESV; listed as Homo sapiens) [compound 363]” it is ““++” (≥20% = ++)”.
The same measure for “353 (YLFEMDSSL; listed as Homo sapiens) [compound 353]”: ““++” (≥20% = ++)”.
Consider “271 (LVYPLELYPA; listed as Homo sapiens) [compound 271]”, for which the Peptide exchange result is reported as ““+++” (≥50 = +++)”.
The entry for “344 (YLQDQHLLLTV; listed as Homo sapiens) [compound 344]” is ““+++” (≥50 = +++)”; for “366 (RLLDMGETDLML; listed as Homo sapiens) [compound 366]” it is ““+++” (≥50 = +++)”; for “119 (FLYIGDIVSL; listed as Homo sapiens) [compound 119]” it is ““++++” (≥75% = ++++)”.
The same measure for “216 (NLWEDPYYL; listed as Homo sapiens) [compound 216]”: ““+++” (≥50 = +++)”; for “32 (KLDDLTQDLTV; listed as Homo sapiens) [compound 32]”: ““++” (≥20% = ++)”; for “467 (FLAKDFNFL; listed as Homo sapiens) [compound 467]”: ““+++” (≥50 = +++)”.
As for “577 (VMFEDGVLMRL; listed as Homo sapiens) [compound 577]”, the Peptide exchange result is on record as ““+++” (≥50 = +++)”.
The same measure for “579 (NLMEMVAQL; listed as Homo sapiens) [compound 579]”: ““++” (≥20% = ++)”; for “230 (ILVDWLVEV; listed as Homo sapiens) [compound 230]”: ““+” (≥10% = +)”.
The same measure for “69 (FQLDPSSGVLVTV; listed as Homo sapiens) [compound 69]”: ““+++” (≥50 = +++)”.
The entry for “23 (VLLDDIFAQL; listed as Homo sapiens) [compound 23]” is ““+++” (≥50 = +++)”; for “218 (SALEELVNV; listed as Homo sapiens) [compound 218]” it is ““++” (≥20% = ++)”; for “274 (SLLFSLFEA; listed as Homo sapiens) [compound 274]” it is ““++” (≥20% = ++)”.
For “527 (FLLEPGNLEV; listed as Homo sapiens) [compound 527]”, the Peptide exchange entry was ““++++” (≥75% = ++++)”.
Take “5 (HLTEVYPEL; listed as Homo sapiens) [compound 5]”: the Peptide exchange entry was ““+++” (≥50 = +++)”.
The same measure for “578 (FLDPGGPMMKL; listed as Homo sapiens) [compound 578]”: ““+++” (≥50 = +++)”.
With “279 (ALWGGTQPLL; listed as Homo sapiens) [compound 279]”, the Peptide exchange result was ““++” (≥20% = ++)”.
The same measure for “314 (ALIAEGIALV; listed as Homo sapiens) [compound 314]”: ““+++” (≥50 = +++)”; for “122 (FLLAEDDIYL; listed as Homo sapiens) [compound 122]”: ““+++” (≥50 = +++)”.
The entry for “154 (ALDDGTPAL; listed as Homo sapiens) [compound 154]” is ““++” (≥20% = ++)”; for “567 (SLLPLDDIVRV; listed as Homo sapiens) [compound 567]” it is ““+++” (≥50 = +++)”; for “231 (FLSPQQPPLLL; listed as Homo sapiens) [compound 231]” it is ““++” (≥20% = ++)”.
In the case of “217 (ALIHPVSTV; listed as Homo sapiens) [compound 217]”, the Peptide exchange result is reported as ““++” (≥20% = ++)”.
Take “67 (TLLAEALVTV; listed as Homo sapiens) [compound 67]”: the Peptide exchange result is given as ““+++” (≥50 = +++)”.
The same measure for “343 (SLLEVNEESTV; listed as Homo sapiens) [compound 343]”: ““+++” (≥50 = +++)”; for “475 (LLLNEEALAQI; listed as Homo sapiens) [compound 475]”: ““+++” (≥50 = +++)”.
The same measure for “542 (RVWDISTVSSV; listed as Homo sapiens) [compound 542]”: ““+++” (≥50 = +++)”; for “223 (ALLENIALYL; listed as Homo sapiens) [compound 223]”: ““+++” (≥50 = +++)”.
The same measure for “181 (LLWAGTAFQV; listed as Homo sapiens) [compound 181]”: ““+++” (≥50 = +++)”.
Regarding “547 (TLDITPHTV; listed as Homo sapiens) [compound 547]”, the Peptide exchange entry is on record as ““+++” (≥50 = +++)”.
The same measure for “222 (NLIENVQRL; listed as Homo sapiens) [compound 222]”: ““++” (≥20% = ++)”; for “73 (NIFDLQIYV; listed as Homo sapiens) [compound 73]”: ““+++” (≥50 = +++)”; for “480 (ALLEDSCHYL; listed as Homo sapiens) [compound 480]”: ““+++” (≥50 = +++)”.
The entry for “146 (SLATAGDGLIEL; listed as Homo sapiens) [compound 146]” is ““++” (≥20% = ++)”; for “610 (LLAPTPYIIGV; listed as Homo sapiens) [compound 610]” it is ““+++” (≥50 = +++)”; for “286 (YLFPGIPEL; listed as Homo sapiens) [compound 286]” it is ““+++” (≥50 = +++)”.
On to “510 (KLYSVVSQL; listed as Homo sapiens) [compound 510]”, for which the Peptide exchange entry is listed as ““++” (≥20% = ++)”.
On to “191 (LLQEGQALEYV; listed as Homo sapiens) [compound 191]”, for which the Peptide exchange result is ““++” (≥20% = ++)”.
The same measure for “390 (ALFMKQIYL; listed as Homo sapiens) [compound 390]”: ““+++” (≥50 = +++)”; for “84 (VTFGEKLLGV; listed as Homo sapiens) [compound 84]”: ““++” (≥20% = ++)”; for “307 (ALPVSLPQI; listed as Homo sapiens) [compound 307]”: ““+++” (≥50 = +++)”.
Turning to “558 (GLLENIPRV; listed as Homo sapiens) [compound 558]”, the Peptide exchange entry is ““+++” (≥50 = +++)”.
Regarding “16 (VLFQGQASL; listed as Homo sapiens) [compound 16]”, the Peptide exchange result is ““+++” (≥50 = +++)”.
The same measure for “375 (SLTETIEGV; listed as Homo sapiens) [compound 375]”: ““++” (≥20% = ++)”.
The same measure for “466 (VLIANLEKL; listed as Homo sapiens) [compound 466]”: ““++++” (≥75% = ++++)”.
The same measure for “531 (YTLPIASSIRL; listed as Homo sapiens) [compound 531]”: ““+++” (≥50 = +++)”.
